{
  "source": "patent US20030148460",
  "key": {"uteroferrin": {"target": "uteroferrin (UniProt P09889)", "sequence (P09889 22-340)": "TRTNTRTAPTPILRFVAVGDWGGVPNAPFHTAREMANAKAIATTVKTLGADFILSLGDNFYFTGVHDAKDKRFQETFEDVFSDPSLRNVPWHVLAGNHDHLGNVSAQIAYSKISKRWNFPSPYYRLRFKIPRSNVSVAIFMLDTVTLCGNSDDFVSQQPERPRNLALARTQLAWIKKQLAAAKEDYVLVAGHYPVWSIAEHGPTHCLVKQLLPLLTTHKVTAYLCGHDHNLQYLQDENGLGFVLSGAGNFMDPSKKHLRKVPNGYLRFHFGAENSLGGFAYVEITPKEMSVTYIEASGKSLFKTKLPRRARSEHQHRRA"}},
  "data": [
    {"substance": "bovine GlcNAc-phosphotransferase (UDP-N-acetylglucosamine: lysosomal enzyme N-Acetylglucosamine-1-phosphotransferase)", "values": [
      {"measurement": "Km as acceptor for transfer of GlcNAc-1-P", "setting": "RNAse B", "value": "the Km was not reached at the solubility limit of the protein (at 600 µM)"},
      {"measurement": "Km as acceptor for transfer of GlcNAc-1-P", "setting": "cathepsin D", "value": "Both uteroferrin and cathepsin D are effectively utilized as acceptors by purified GlcNAc-phosphotransferase with Kms below 20 µM"},
      {"measurement": "Km as acceptor for transfer of GlcNAc-1-P", "setting": "uteroferrin", "value": "Both uteroferrin and cathepsin D are effectively utilized as acceptors by purified GlcNAc-phosphotransferase with Kms below 20 µM"}
    ]}
  ]
}
